The source of these data is article PMC9126151.

The target in the assay is non-translating 70S ribosome (E. coli) (UniProt P0AG44). As to the kind of experiment: FRET or BRET. In general terms: In BRET a luciferase serves as donor, and the signal depends on an acceptor being close.

As a reminder, the Kd is the concentration at which binding is half-saturated. Low values mean a tighter complex, high ones a looser complex. In turn, “methionine aminopeptidase MAP(H79A), TMR-labelled (from UniProt P0AE18 1-264) (enzyme)” showed a Kd of 5.4 µM. In other words, the single-digit micromolar range.
In turn, “peptide deformylase PDF(E133A), TMR-labelled (enzyme)” gave a Kd of 7.3 µM.
